Results taken from US20230304022, “CHIMERIC POLYPEPTIDES HAVING TARGETED BINDING SPECIFICITY” (The Scripps Research Institute, published 2023).
Positions count from the first letter of the chain named.

Target: MBP-TALE AvrXa7 NT-βN (synthetic, [XXX]=Y-H)
Test: p228, FIG 26
Conditions: tags: MBP; label: 5'-biotin; hairpin

B1: Avr 5'C biotin hairpin (dsDNA)
DNA: ATCTTAGCACCTGGTTGGAGGGGGTTTATGGGGTTTTCCCCATAAACCCCCTCCAACCAGGTGCTAAGAT
B1: binds.

B2: Avr 5'A biotin hairpin (dsDNA)
DNA: B1 DNA with G30T, C41A
B2: binds.

B3: Avr 5'G biotin hairpin (dsDNA)
DNA: B1 DNA with G30C, C41G
B3: binds.
